Measurements from patent publication CN117069831A (SHENZHEN BGI LIFE SCIENCE RES INSTITUTE, dated 2023).

Key:
SARS-CoV-2 南非beta突变型S1抗原 = target: T1, SARS-CoV-2 南非beta突变型S1抗原 (SARS-CoV-2 beta variant, UniProt P0DTC2 16-685); assay: SPR, Biacore T200, antigen coupled to CM5 chip, nanobody as analyte
T1 construct: domain: S1; also called beta突变体抗原; beta变异突变株

[1] = target: T2, SARS-CoV-2 印度delta突变型S1抗原 (SARS-CoV-2 delta variant, UniProt P0DTC2 16-685); assay: as above
T2 construct: domain: S1; also called delta突变体抗原; delta变异突变株

Binder	Kd (SARS-CoV-2 南非beta突变型S1抗原)	Kd [1]
R-30 (VHH, also called 第一株RBD纳米抗体R-30) VHH: QVQLQESGGGLVQSGGSLRLSCTASGGIIRLNSMGWYRQAPGKQREPVATIVSDVGTNYADSVKGRFTISRDNAKNTIYLQMNSLKFEDTAVYYCVADRAFVLRGEYEYWGQGTQVTVSS	~0.1 nM	~0.1 nM
S1-28 (VHH, also called 第二株RBD纳米抗体S1-28) VHH: QVQLQESGGGLVQPGGSLRLSCTASGGIIRLNSMGWYRQAPGKQREPVATIVSDVGTNYADSVKGRFTISRDNAKNTIYLQMNSPKFEDTAVYYCVADRAFVLRGEYEYWGQGTQVTVSS	~0.1 nM	~0.1 nM
S1-51 (VHH, also called 第三株RBD纳米抗体S1-51) VHH: QVQLQESGGGLVQSGGSLRLSCAASGGVSRLNSMGWYRQAPGKQRELVATIISDVGTNYADSVKGRFTISRDNAANTVYLQMNSLKFEDTAVYYCVADRAFVLRGEYEYWGQGTQVTVSS	~0.1 nM	~0.1 nM
S1-24 (VHH, also called 第四株RBD纳米抗体S1-24) VHH: QVQLQESGGGLVQSGGSLRLSCAASGGVSRLNSMGWYRQAQGKQRELVATIVNDVGTNYADSVKGRFTISRDNAANTVYLLMNSLKFEDTAVYNCVADRAFVLRGEYEYWGQGTQVTVSS	~0.1 nM	~0.1 nM
